{
  "source": "patent US20230330196",
  "biological_target": "programmed death-1 homolog (PD-1H) of mouse mononuclear bone marrow cells (UniProt Q9D659)",
  "sequence (Q9D659 33-308)": "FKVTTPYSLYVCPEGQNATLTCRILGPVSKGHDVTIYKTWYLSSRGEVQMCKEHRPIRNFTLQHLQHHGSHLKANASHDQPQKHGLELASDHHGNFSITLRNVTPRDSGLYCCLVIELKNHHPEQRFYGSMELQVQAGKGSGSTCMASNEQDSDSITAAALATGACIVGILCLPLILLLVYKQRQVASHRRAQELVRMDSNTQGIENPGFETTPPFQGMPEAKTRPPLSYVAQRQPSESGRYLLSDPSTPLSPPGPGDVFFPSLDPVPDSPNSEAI",
  "data": [
    {"substance": "MMP-13 (added to mouse osteoclast cultures)", "values": [
      {"measurement": "OCL fusion and activation, ERK1/2 phosphorylation, NFATc1 and DC-STAMP upregulation in Pd-1h-/- versus WT OCLs", "value": "While MMP-13 induced WT OCL fusion and activation, these effects were completely blocked in Pd-1h-/- OCLs in tandem with a loss in MMP-13 induced ERK1/2 phosphorylation, NFATc1 and DC-STAMP upregulation"}
    ]}
  ]
}
